The source of these data is patent US11230581B2, “Peptides and combination of peptides for use in immunotherapy against ovarian cancer and other cancers” (Immatics Biotechnologies GmbH, priority 2015, dated 2022).

The target of the assay is HLA-A*02:01 (Homo sapiens, UniProt P04439, D140Y/D185E/D98H/E176V/E277Q/G131W/G231S/I119V/I121R/I166T/I218V/L300P/L318F/N151K/N90K/P208A/P217A/Q86G/Q94H/R138H/R169H/T345S). The experiment in a line: MHC binding assay (UV-ligand exchange, β2m ELISA, peptide exchange yield). The conditions noted are these: binding of HLA-class I restricted peptides to HLA-A*02:01, UV-ligand exchange. Put shortly: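 Yield of stabilized complexes quantified via the β2m light chain in an ELISA (streptavidin capture, 100-fold diluted monomers, HRP anti-β2m 2 ug/ml at 37 °C, TMB, A450). The complexes come from UV-triggered replacement of a photocleavable ligand by the candidate peptide.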
“511 (FLDPYCSASV; listed as Homo sapiens) [compound 511]”: the “Peptide exchange (MHC class I binding score, peptide exchange yield)” value (“Peptide exchange” below) is ““++” (≥20% = ++)”.

In the case of “512 (SLSEIVPCL; listed as Homo sapiens) [compound 512]”, the “Peptide exchange” value was ““+++” (≥50 = +++)”. As for “513 (SLWPSPEQL; listed as Homo sapiens) [compound 513]”, the entry is ““++” (≥20% = ++)”; as for “514 (ILVDWLVQV; listed as Homo sapiens) [compound 514]”, ““+++” (≥50 = +++)”; as for “515 (LLQELVLFL; listed as Homo sapiens) [compound 515]”, ““+++” (≥50 = +++)”. In the case of “516 (AVGPASILKEV; listed as Homo sapiens) [compound 516]”, the “Peptide exchange” value was ““++” (≥20% = ++)”. With “517 (LLMPIPEGLTL; listed as Homo sapiens) [compound 517]”, the “Peptide exchange” value is given as ““+++” (≥50 = +++)”. With “518 (KLNAEVACV; listed as Homo sapiens) [compound 518]”, the “Peptide exchange” value is recorded as ““+++” (≥50 = +++)”. “519 (GLLHLTLLL; listed as Homo sapiens) [compound 519]”: the “Peptide exchange” value is recorded as ““+++” (≥50 = +++)”.

With “520 (LAVHPSGVAL; listed as Homo sapiens) [compound 520]”, the “Peptide exchange” value is given as ““+” (≥10% = +)”. As for “521 (MLLTKLPTI; listed as Homo sapiens) [compound 521]”, the entry is ““+++” (≥50 = +++)”; as for “522 (TLWYRSPEV; listed as Homo sapiens) [compound 522]”, ““++” (≥20% = ++)”; as for “523 (YQIPRTFTL; listed as Homo sapiens) [compound 523]”, ““++” (≥20% = ++)”. Consider “524 (ALIENLTHQI; listed as Homo sapiens) [compound 524]”, for which the “Peptide exchange” value was ““++” (≥20% = ++)”. Turning to “525 (VLLEAGEGLVTI; listed as Homo sapiens) [compound 525]”, the “Peptide exchange” value is ““+++” (≥50 = +++)”. The result for “526 (RLAEVGQYEQV; listed as Homo sapiens) [compound 526]” reads ““++” (≥20% = ++)”; that for “527 (FLLEPGNLEV; listed as Homo sapiens) [compound 527]”, ““++++” (≥75% = ++++)”; that for “528 (SVAEGRALMSV; listed as Homo sapiens) [compound 528]”, ““+++” (≥50 = +++)”. On to “529 (LLADELITV; listed as Homo sapiens) [compound 529]”, for which the “Peptide exchange” value is ““+++” (≥50 = +++)”. As to “530 (VMYADIGGMDI; listed as Homo sapiens) [compound 530]”, the “Peptide exchange” value was ““+++” (≥50 = +++)”. Turning to “531 (YTLPIASSIRL; listed as Homo sapiens) [compound 531]”, the “Peptide exchange” value is on record as ““+++” (≥50 = +++)”. Consider “537 (TLAPGEVLRSV; listed as Homo sapiens) [compound 537]”, for which the “Peptide exchange” value is reported as ““+++” (≥50 = +++)”. Consider “538 (LLLAHIIAL; listed as Homo sapiens) [compound 538]”, for which the “Peptide exchange” value is recorded as ““++” (≥20% = ++)”. On to “539 (ALFDAQAQV; listed as Homo sapiens) [compound 539]”, for which the “Peptide exchange” value is on record as ““+++” (≥50 = +++)”.

Take “541 (SMLEPVPEL; listed as Homo sapiens) [compound 541]”: the “Peptide exchange” value is recorded as ““+++” (≥50 = +++)”. As to “542 (RVWDISTVSSV; listed as Homo sapiens) [compound 542]”, the “Peptide exchange” value is listed as ““+++” (≥50 = +++)”.

Consider “543 (GLLPTPITQQASL; listed as Homo sapiens) [compound 543]”, for which the “Peptide exchange” value is given as ““+++” (≥50 = +++)”.

“544 (LLWDVPAPSL; listed as Homo sapiens) [compound 544]”: the “Peptide exchange” value is ““+++” (≥50 = +++)”. With “545 (LLADLLHNV; listed as Homo sapiens) [compound 545]”, the “Peptide exchange” value is recorded as ““+++” (≥50 = +++)”. For “546 (VMIAGKVAVV; listed as Homo sapiens) [compound 546]”, the “Peptide exchange” value is given as ““+++” (≥50 = +++)”. In the case of “547 (TLDITPHTV; listed as Homo sapiens) [compound 547]”, the “Peptide exchange” value was ““+++” (≥50 = +++)”. As to “548 (ALWENPESGEL; listed as Homo sapiens) [compound 548]”, the “Peptide exchange” value is given as ““++” (≥20% = ++)”. In the case of “549 (AMLENASDIKL; listed as Homo sapiens) [compound 549]”, the “Peptide exchange” value was ““+++” (≥50 = +++)”.

Consider “550 (FLYDEIEAEVNL; listed as Homo sapiens) [compound 550]”, for which the “Peptide exchange” value is recorded as ““+++” (≥50 = +++)”. On to “551 (KLYESLLPFA; listed as Homo sapiens) [compound 551]”, for which the “Peptide exchange” value is ““+++” (≥50 = +++)”. “552 (GLLDLPFRVGV; listed as Homo sapiens) [compound 552]”: the “Peptide exchange” value is ““++++” (≥75% = ++++)”. Consider “553 (SLLNQDLHWSL; listed as Homo sapiens) [compound 553]”, for which the “Peptide exchange” value was ““++++” (≥75% = ++++)”.

Take “554 (LLMPSSEDLLL; listed as Homo sapiens) [compound 554]”: the “Peptide exchange” value is recorded as ““+++” (≥50 = +++)”.

“555 (YVLEGLKSV; listed as Homo sapiens) [compound 555]”: the “Peptide exchange” value is given as ““+++” (≥50 = +++)”. Regarding “556 (FLTDLEDLTL; listed as Homo sapiens) [compound 556]”, the “Peptide exchange” value is recorded as ““+++” (≥50 = +++)”.

Turning to “557 (KLYDDMIRL; listed as Homo sapiens) [compound 557]”, the “Peptide exchange” value is ““+++” (≥50 = +++)”.

Take “558 (GLLENIPRV; listed as Homo sapiens) [compound 558]”: the “Peptide exchange” value was ““+++” (≥50 = +++)”. As for “559 (VTVPPGPSL; listed as Homo sapiens) [compound 559]”, the entry is ““++” (≥20% = ++)”. As for “560 (ALWDIETGQQTTT; listed as Homo sapiens) [compound 560]”, the “Peptide exchange” value was ““+++” (≥50 = +++)”. As for “561 (YLQLTQSEL; listed as Homo sapiens) [compound 561]”, the “Peptide exchange” value is recorded as ““+++” (≥50 = +++)”. As for “562 (YLEELPEKLKL; listed as Homo sapiens) [compound 562]”, the entry is ““+++” (≥50 = +++)”; as for “563 (WLLPYNGVTV; listed as Homo sapiens) [compound 563]”, ““+++” (≥50 = +++)”.

On to “564 (TVTNAVVTV; listed as Homo sapiens) [compound 564]”, for which the “Peptide exchange” value is listed as ““+++” (≥50 = +++)”. As for “565 (ALQETPTSV; listed as Homo sapiens) [compound 565]”, the entry is ““++” (≥20% = ++)”; as for “566 (VIADGGIQNV; listed as Homo sapiens) [compound 566]”, ““++” (≥20% = ++)”. Consider “567 (SLLPLDDIVRV; listed as Homo sapiens) [compound 567]”, for which the “Peptide exchange” value is given as ““+++” (≥50 = +++)”. On to “568 (TLYDIAHTPGV; listed as Homo sapiens) [compound 568]”, for which the “Peptide exchange” value was ““++++” (≥75% = ++++)”. Regarding “569 (KLVDRTWTL; listed as Homo sapiens) [compound 569]”, the “Peptide exchange” value was ““+++” (≥50 = +++)”.

In the case of “570 (ALANQIPTV; listed as Homo sapiens) [compound 570]”, the “Peptide exchange” value was ““++” (≥20% = ++)”. In the case of “571 (LLLTTIPQI; listed as Homo sapiens) [compound 571]”, the “Peptide exchange” value was ““+++” (≥50 = +++)”. For the substance “572 (ALADLIEKELSV; listed as Homo sapiens) [compound 572]”, the “Peptide exchange” value was ““+++” (≥50 = +++)”.

Regarding “573 (ILVANAIVGV; listed as Homo sapiens) [compound 573]”, the “Peptide exchange” value was ““+++” (≥50 = +++)”. “574 (YLLQEPPRTV; listed as Homo sapiens) [compound 574]”: the “Peptide exchange” value is on record as ““++” (≥20% = ++)”.

Regarding “575 (YLISQVEGHQV; listed as Homo sapiens) [compound 575]”, the “Peptide exchange” value was ““+++” (≥50 = +++)”. Take “576 (ILLNNSGQIKL; listed as Homo sapiens) [compound 576]”: the “Peptide exchange” value is given as ““++++” (≥75% = ++++)”. “577 (VMFEDGVLMRL; listed as Homo sapiens) [compound 577]”: the “Peptide exchange” value is on record as ““+++” (≥50 = +++)”.
